Experiment: soluble fraction after stress (log2 fold change); higher = more stays soluble; pooled small domains, quantitative proteomics
Details: stress: 75 degC
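Further: 20 min heating vs room temperature control held 20 min.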

Row | Sequence | soluble fraction (log2)
1 | HMFIQLSQEEKKVVEGLQQRSKTHLDALALEVGQNISKTAAMLMELEMKGVVRALPGKYYEL | -1.1
2 | HMFKEVPVPDVKGMTLEEAKLALEKEGFILGKTEEAESTEVAAGKIISQNLEAGKIAKQGTSVNLVVSKGK | 0.454
3 | HMFKLPRTIGTFEDSDVVIGAGKFGPYIMHNKKFVSLPKSEDPLTIGLERAIELISAKREQEKQRH | 0.265
4 | HMFLPFFDNLRKAGVPVSLREFLGFLEGMKAGLATYDIDAFYFLARTTMVKDERNLDKFDRAFSATFKG | -1.02
5 | HMFNDGEIAIYTDPRGDAGETQIWKRGKGYYGQNDSFDFEAKDKKELEMKLKRWGYVLIAGSIDE | -0.435
6 | HMFNGDPTTRESILASARAEIDQYGIIGLRLSAVAEKAQVSVPLIYKYFEDRDGLLAVVLGDW | -1.21
7 | HMFNTWLGEIRSNTGANVRSGPDASAAIVDARPNETVVRVIGQSGNWLQIGDKQFVAQSLVAP | -0.0837
8 | HMFPDLTGDELRIVDLLNTANDLQVNIITAKTNLPISRVTSLLFQLEMKGVVKPLAGGMYHLLG | -1.49
9 | HMFPELDEEEQKITKLLQAQNDLPANIIAVKTALNIGTTQAKLFSLEMKGVVKPYAGGFYHLL | -2.73
10 | HMFPNLTNEEQQVMKVLAKTNDLQINMLSVQSNLPIARLTALLFSMEMKGVVKTLAGGVYHLL | -4.27
11 | HMFPNSFSEREKEVVDLLLQAKSNKQIAFSLGITNRTVEYHLGNIFAKLGVSSRSEAILTITNYKNQ | -2.35
12 | HMFPQVEVQLIYSYKSDRILNKMLKEFNVVILNQVFKDDILTSFHMNYSLVNQLITKIKSYPDISYKIIN | -1.82
13 | HMFPTLNEDEQTIVSALQKINDQPINTLSIHTALPIPRLTSLLFQLEIKGVIKQLAGGTYHVL | -2.84
14 | HMFQLSNEAKQQVLGELKRYESKQSAVLPALYIGQKDNKGHITPEVIRELSKVMDIPESQINEVFTFYTM | -0.287
15 | HMFQRLPFSFANRYKMVLEYQHPERPPVLYYVEPLKAAAILEVSRVIKSGFTPQAIVSDEFEKKLTEAYQR | -2.76
16 | HMFRMTPQRMAILAEVQNAERHLTAAEIYERVRRKYPTIAYGTVYRTLHLLAKHGLIQEFPFGDNASLFDR | -0.159
17 | HMFRPRIEPGAKGSYVLEVQKRLAKLGYEHAGFDGVYGPGTERAIMQLQRDKGLPVTGIVDMRTYEALGLF | -0.99
18 | HMFRSTLEELKHQISGFLKANQSQEFTAQNLADGLRMTSIAEYKRVVNAMDALVRDGELTFDAGKYQYNPN | -0.234
19 | HMFSMKDFGQRLRQLRKERGLTQGDLARLAKIDIMQVSRYERGLGLPSLETAIALARVLETSTDLLFLG | -3.52
20 | HMFSPSDEDLELAHRQIRAFEEVEANGKSIAVVDGRIVESLHIVTARDTLEKAKAITALAEEM | 0.000997
21 | HMFSVVDKITLQEELKKLSKKEQLLIQLRYYDELNQEEIAKIFHVSQVQISRMEKKIIEKLKKQF | -3.44
22 | HMFTDEELEHIRSALIQAGIRLSKELGLQKMSVEKLTAAVGIAKGSFYMFFGSKEDFILEVAEYTGAQ | -0.976
23 | HMFTEEEMTKLRHELILAGIRLSRELGLQRMSVEKITSAVGIAKGSFYIFFDSKEDFILEIADHANRE | -1.1
24 | HMFTEEQMDWLRLIKDHIVASLSILPEDLELTPFDRKGGLLGFYDAFGDEYEKILQEMNEELVA | -0.567
25 | HMFTEIMAERNALIQAIQQNLPPQHIQSILSKKNKFRLEDLTNEELRDVWQWILNQRQAQQHQQQ | -0.0958
26 | HMFTGELESRVFELNYVDGLVASAALAGVLTDKGSATPIASRAGGENDMLLVVDRIASYSQIEKIITQLD | 0.0191

Row | Sequence | soluble fraction (log2)
27 | HMFTKSNLEKLSNSELILKAIDSGNYSKIEFGGSEALNPDVPSYKKDLKNREELIEILSEMGM | 0.148
28 | HMFVNADEIAKGLSPFNPSSVAIEAGRLMLKRIGELLSAGVSFSVETTLSTRSYINLIQQAQNQGYSVSL | 0.822
29 | HMFVVVPDLIGKTINQFEEDLSELNLKYVVSDSGNFNPEFKINAVLDQSPKANSKVKDGRKIYLTLNAS | -0.434
30 | HMFWRKIDFYGLNLSTYRNIINIGSDYNYIYLDLGNIYKILNPITGKIIEEQDLVMNIDNINWSS | 0.283
31 | HMFYNDLINFDVFRDSRKIGKIENINSRLPQPVFEIMYDSRIVLIPIHEDFIRKIDKVNNIIYLDIPDGLL | -2.99
32 | HMGAAFITSSKDNAINIRQSANTDSKVIETVTNGQILESNEKSGEWHKVTYYDNDIKKSFTGYVHEGQLK | 0.0505
33 | HMGAAIEYGDRGNTVLQAQRLLIARGYMAGSADGIYGRQMEQAVKRFQKEQGLPESGVVDRRTLQVLIRSR | -1.63
34 | HMGAARRFEMSEGGSQKFWEVAVEGPALTVRFGKLGTAGTTQTKTLASAEAAAKEADKLVREKTKKGYAP | -0.199
35 | HMGAATQADIARVQELLNRLGYDAGSPDGLMGPRTRDAILEYQLTEGLETTGTVTRETLASLEARL | 0.0156
36 | HMGAGFREAIPPALDGERIDRVVSLLAYVSRNRAAGALAAGSVSVDGEVVFQRSRRVREGEELVVTGFERE | -1.01
37 | HMGAITGLQSRVAFLKGQGTITDAEAKTAMAFLPDPTDSKEVKIAKIGQAREYIMSLIENRA | -0.267
38 | HMGAIVTGTVVEIRSDVVIVNAGLKSEGVVPIEQFRNEAGELEVSVGDEVKVALDALEDGFGETRLS | -0.347
39 | HMGAIVTVPDLAGRPQPGAEAELRRSGLVPKVRTSYSLTGTRGTVISQTPPAGSRVREGAEVEVVVSRGLN | 0.00469
40 | HMGAKLTTAQGGTLKVLVKGKKTHTPTIELRDKDPDFPNAKVVQPDINKGNKQIAHGINGVL | 0.686
41 | HMGALAITPDFVGQTREEAERFLRDLDLSFDIGGKGDRILRQEPVAGQRMNLDQPMKLWVGSMNA | 0.245
42 | HMGANAVAAFTARVRTGPSTGYPVRISVPQGRQVRVISGPYGGWYRVSYQGLTGYTYGGLLRQG | -0.673
43 | HMGAPAISYSKFLEQVDRKNVASVTIYKDGRIDGVMTSGSRFATESPSDPGLVGDLLKAGVEIRAKPP | 0.177
44 | HMGAPVIYELTAESAAGQRIDKYLSGQLADLSRSYLQKLLKDGGVEVNKKPVKSNYKLSEGDQIRLEVPEA | 0.0457
45 | HMGAQINSPISGTILKYLVKNGDKITKDQPLVNIESMKMENTIKSDKEGIVNNINFKIGDSVNTADTLLTL | 0.0698
46 | HMGAQKITIPDFSNQEATQVYAELKNMGLEYTESRMNHPSIASGYVIKTEPTKGSEVKAGTTVTVYVSLG | -0.112
47 | HMGARHPLPYPFARAHGLLLEADGERSTLWASTNVSPAALSEVMRKYAVDVIEEEPPETLSQRIAAAYAA | -0.155
48 | HMGASFITSSKDNAINIRESATTDSKVIETIKNGEILESTEKSGDWHKVTYYNSEIKKSFTGYIHNSQLK | 0.426
49 | HMGASLVIVPGAGFLRVSASSQTRLDVYSITGMRVRSVDFEPGTTEIELPAGFYIAGGRKFFV | -2.42
50 | HMGAYITYEVKPGDTLWDIANKFPGVSADNIKTWNKVDELIKAGERLKINTQTITDYSPDKYPS | -0.242
51 | HMGDADDLSRELLQQGLSLKEAVADFERRYLQQAMQRHSSIASVSEALDVHFSTLWRKLVKYNLV | -0.104
52 | HMGDADDLTRIKGIGPKLSKTLNELGIYHFRQIAGWQSDEADWVDDYLSFKGRVMREQWIEQAQKFAS | -0.475

Row | Sequence | soluble fraction (log2)
53 | HMGDAIPVPDVSGFSEDQAMNNLRKVGLRPKATYVADDNTAKGYVTGTSPAKNIEVAPDSEVIVYVSSGP | 0.697
54 | HMGDAPLITVDKRTIKVNGAKAQIQVYDTTGRLVKNVSPAGKLTLIEMAKPGIFIVHTQSMSFKVVL | -0.351
55 | HMGDAVYSKVKDLVNTYNALAKQTGKSDLVSISQSRTWMVNDTKAHEVQWNKIGITIEDDQTLTI | 0.0968
56 | HMGDLDLVTFGQRLRHLRRSRNMTLSELGERVGRAPSQLSLLENGKREPKLSLLTALAKALDVSVEEL | -1.05
57 | HMGDLVKGKVVGYDPDNVIVDIGAKTNALVPNREAVVEAGDDIKETLKKGNEYEFLIIRDEDEEGEFL | 0.24
58 | HMGDPEYFKKQLGDFMDRFNITSEDIKNLSIAGAINRMMNNAEGEDKTVLSKLLETVNKSGVGNLPAKTI | -0.0106
59 | HMGDPVRVDKFLHDMNVGTRSQIRKLIKEKAVFVNDVVAKSGRVKVDPVVDQVRLGEQVITYQ | -0.245
60 | HMGDPYAILGLLPGASMEDVRHAWRRQAAENHPDRMLQRGAPPEFVEIAREKTAAINAAYARIREELSI | -0.433
61 | HMGDTIGEQKAKEIALEHAGLKSSDVTFIRAVLEYDDRNWEYDVEFYDADTYTEYDYEIDAHTGKILSFDH | 0.351
62 | HMGDTPVDFSEFIRWVDTGVVDRVELTGNEIVGTSSSGERFSTYAPPQYEGLGNKLIERDIVVVATAA | -0.0455
63 | HMGDTVSGTMLNLKPGVRVVHQIFGPGRVEETTGASLAEFRVTVRFEQKGLKTLLLQYAALQVINSEN | -1.73
64 | HMGDVKLNAIYNFLKEFSALNGFPPSVREIGAKFGIKSTSTVHYYLEKLKQSGVIQQEENKKRAVVIN | -1.32
65 | HMGDWEDFWEKEARRRKLSLDYQVVRSLSRWSREYDWGEEDVEQFLSQFPEGETVKMEDVELYFE | -1.18
66 | HMGDYDHYVVKVEDTLLNWLVTNVTTMSRNKLKDILAGQGIKVNGKITTKYDYPLTPGMKIAISKTKR | -1.41
67 | HMGEAIPVPDIRHKSQADAERLLQDQGLAMMVTDTGYVKTLPANYILEQIPVAGEKVKSGHVVYVIINSG | -0.103
68 | HMGEGIRIDSTAVVQVGEKMYAYLGGDGFSKEFWTNLPASGELAVTLKFEPIPMDAESLDFYEMPA | 0.307
69 | HMGEILYSGVLKGGDGPEATKLALEKFLGEANTQVAGRIGVQPETQVIWLSREAVDSAASTLSQHKGNMYV | -0.247
70 | HMGELDFYEEMRDDYLTGKIWNVGEIVEAKGMIGEIVRKGTNYISFVTDDNKVHKAWLHEIKL | -0.641
71 | HMGELRAPLPGVIVSIPVKEGDEVKAGQAILIIEAMKMESEISSPIDAKVAKIVVKERVLVQEGDILIILE | -1.33
72 | HMGEMTDFETLRDMYLTGQIWNIDDLIEANGVEGRIVRRGTNYIAFNDRDGKVHKAWLHEVTINE | -0.434
73 | HMGENTIFSGVLGEGRLDSALAHALPQFSRARIQGLIAEDAVLIAGKATNDAASKKFAGQSFELSVPAPRP | 0.119
74 | HMGEPQAWNELIGNLLRQWEARQTGWTPARKREALDRVLGAADPAALYTRLQGLLKSWTQAMTDADA | -1.73
75 | HMGEQETILKGDVNRDGVVDVNDVTHLQIHISNDDKNPLIDVTNKAWFDAADMYGDGKLDILDATALQIYI | 0.196
76 | HMGERVDGVVKFFNGQKGFGFIQREDGGPDAFVHISAVERAGMAGLDEGQRVSFELELDRRGKQAAINLTP | 0.108
77 | HMGESYGPVRRGETLWSIAEKVKPAGVSTQKELAAIYAANPQAFIRGDINLLKAGAELRLPSPEAL | -0.0179
